The target of assay [1] is T1, recombinant human EGFR protein (human, UniProt P00533 25-645).
T1 construct: Bought
Briefly: BLI, antibody on AHC sensor. As to the method:
(§1) Antibodies were first captured onto an anti-human IgG Fc coated AHC biosensor (Anti-hIgG Fc, Sartorius, 18-5060). Antibodies were diluted to 5 μg/mL and 1.5 nm protein was coupled to the AHC sensor surface in 0.02% PBST.
(§2) After the sensor captures the antibodies, it is used to bind and dissociate with different concentrations of analytes to obtain the KD value of the interaction. The experimental parameters are as follows: Baseline1: 60 s, Loading: 240 s, Baseline2: 180 s, Association: 240 s, Dissociation: 600 s, High sensitivity kinetics: 2 Hz. Kinetic constants were derived based on the rate equation for 1:1 Langmuir binding to obtain equilibrium dissociation constants (KD). The Data Analysis HT 12 software (Sartorius, 50-5029) was used to simultaneously fit binding and dissociation curves to calculate Kₒₙ and Koff. The affinity KD was calculated based on the below formula: KD=Koff/Kₒₙ.
A general note: BLI is a label-free optical method that tracks binding on a fibre tip over time.

Assay [2] deals with T2, recombinant human CD3ε/δ protein (human, UniProt P07766 23-126; P04234 22-105).
T2 construct: Bought heterodimer
Briefly: BLI, antibody on AHC sensor. How it is done:
as §1, §2

The target of assay [3] is T3, Insulin.
T3 construct: Bought reagent, coated at 5 ug/mL
Briefly: ELISA, insulin coated, 100 nM antibody. How it is done:
(§3) The experimental steps are as follows [0420] […] (4) 50 μl anti-human IgG-HRP conjugate (Sigma, AP113P, 1:8000 dilution) was added to each well; the plate was incubated for 1 h at room temperature and washed 6 times with 0.05% PBST; [0424] (5) 50 μl of TMB chromogenic solution (Biopanda, TMB-S-001) was added to each well and incubated at room temperature for 10-15 minutes for color development; [0425] (6) 50 μl of 1M HCl was added to each well to stop the color development, and the absorbance at 450 nm was measured using a microplate reader (Biotek, SYNERGY LX); Data analysis: If the ratio between the absorbance of the antibody and the absorbance of the blank control PBS is ≥3, there is too much non-specific binding.

In assay [4] the target is T4, keyhole limpet haemocyanin.
T4 construct: Bought reagent, coated at 5 ug/mL; also called KLH
The experiment in a line: ELISA, KLH coated, 100 nM antibody. As to the method: as §3
(In general: In an ELISA, binding on a coated surface is turned into a signal by an enzyme label.)

We go through 1 molecule from patent publication US20240409635A1 (VIBRANT PHARMA, published 2024).

T2 sequence (P07766 23-126, stated change not applied, chain 1 of 2): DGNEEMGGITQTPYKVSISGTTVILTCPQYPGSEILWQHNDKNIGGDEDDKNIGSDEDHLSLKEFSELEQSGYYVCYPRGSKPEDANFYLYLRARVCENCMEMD
T2 sequence (P04234 22-105, stated change not applied, chain 2 of 2): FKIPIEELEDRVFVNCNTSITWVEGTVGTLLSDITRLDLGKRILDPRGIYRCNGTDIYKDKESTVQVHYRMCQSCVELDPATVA

B1: EGFR-BsAb bispecific control antibody (TA1-Fab anti-CD3 x EGFR VHH) (bispecific antibody, human IgG4 S228P, kappa, F234A L235A)
heavy: EVKLLESGGGLVQPKGSLKLSCAASGFTFNTYAMNWVRQAPGKGLEWVARIRSKYNNYATYYADSVKDRFTISRDDSQSILYLQMNNLKTEDTAMYYCVRHGNFGNSYVSWFAYWGQGTLVTVSSASTKGPSVFPLAPCSRSTSESTAALGCLVKDYFPEPVTVSWNSGALTSGVHTFPAVLQSSGLYSLSSVVTVPSSSLGTKTYTCNVDHKPSNTKVDKRVESKYGPPCPPCPAPEAAGGPSVFLFPPKPKDTLMISRTPEVTCVVVDVSQEDPEVQFNWYVDGVEVHNAKTKPREEQFNSTYRVVSVLTVLHQDWLNGKEYKCKVSNKGLPSSIEKTISKAKGQPREPQVYTLPPCQEEMTKNQVSLWCLVKGFYPSDIAVEWESNGQPENNYKTTPPVLDSDGSFFLYSRLTVDKSRWQEGNVFSCSVMHEALHNHYTQKSLSLSL
chain: QVQLQESGGGSVQAGGSLKLSCAASGRGFSRYAMGWFRQAPGQDREFVATISWTNSTDYADSVKGRFAISRDNAKNTAYLQMNSLKPEDTAVYYCAADKWASSTRSIDYDYWGQGIQVTVSSESKYGPPCPPCPAPEAAGGPSVFLFPPKPKDTLMISRTPEVTCVVVDVSQEDPEVQFNWYVDGVEVHNAKTKPREEQFNSTYRVVSVLTVLHQDWLNGKEYKCKVSNKGLPSSIEKTISKAKGQPREPQVCTLPPSQEEMTKNQVSLSCAVKGFYPSDIAVEWESNGQPENNYKTTPPVLDSDGSFFLVSRLTVDKSRWQEGNVFSCSVMHEALHNRFTQKSLSLSL
light: QAVVTQESALTTSPGETVTLTCRSSTGAVTTSNYANWVQEKPDHLFTGLIGGTNKRAPGVPARFSGSLIGDKAALTITGAQTEDEAIYFCALWYSNLWVFGGGTKVEIKRTVAAPSVFIFPPSDEQLKSGTASVVCLLNNFYPREAKVQWKVDNALQSGNSQESVTEQDSKDSTYSLSSTLTLSKADYEKHKVYACEVTHQGLSSPVTKSFNRGEC
notes: IgG4
By Kd is commonly meant a measure of binding affinity in units of concentration. A word on the koff: it is the first-order rate constant of dissociation. The kon is the second-order rate constant of association. As to B1, in assay [1], the dissociation constant Kd came out at 0.645 nM, the koff is 0.000401 s⁻¹ and the kon turned out to be 622000 M⁻¹ s⁻¹. In addition, in assay [2], the Kd is 5.51 nM, the koff was 0.00302 s⁻¹ and the kon is 547000 M⁻¹ s⁻¹. In assay [3], the “absorbance ratio to PBS blank” value was found to be 0.86. Moreover, the “absorbance ratio to PBS blank” value in assay [4] was 0.5.
